Laboratory results taken from PMC7764042, “Interferon Beta Activity Is Modulated via Binding of Specific S100 Proteins” (International Journal of Molecular Sciences, 2020).
Changes are numbered by the printed parent chain. Values belong to the binder of their own block, whether it stands above or below them.

Tests used:
[1] = target: the molecule itself; test: SPR; estimate from the SPR data for 0.5 µM S100 analyte on immobilised IFN-β, 1 mM CaCl2; dimer to monomers, Ca^2+-loaded S100
[2] = target: T1, recombinant human interferon beta-1a (human, UniProt P01574 22-187); test: SPR; IFN-β immobilised on ProteOn GLH chip by amine coupling; Ca^2+-loaded S100 as analyte (0.25–5 µM S100A1, 0.5–5 µM S100A4/A6, 5 µM other S100); 25 °C; 10 mM HEPES, 150 mM NaCl, 0.01% TWEEN 20, pH 7.4, 1 mM CaCl2; heterogeneous ligand model; conditions: both partners purified
T1 construct: human interferon beta (interferon beta-1a), UniProt P01574; Pharmaceutical interferon beta-1a; also called IFN-β; Interferon-β; source: bought: Merck (Rebif), produced in CHO-K1 cells

B1: recombinant human S100A1 (natural protein)
chain: GSELETAMETLINVFHAHSGKEGDKYKLSKKELKELLQTELSGFLDAQKDVDAVDKVMKELDENGDGEVDFQEYVVLVAALTVACNNFFWENS
notes: human S100A1, Swiss-Prot P23297, gene cloned into pHUE between SacII and HindIII; Made as a ubiquitin-S100 chimera and cut with Usp2; also called S10A1; source: E. coli BL21 (DE3) with pLacIRARE, purified (IMAC, Usp2 cleavage, anion exchange, gel filtration)
Kd [1]: ≤ 0.5 µM

Kd [2]: ≥ 10 µM
B2: recombinant human S100A8 (natural protein, UniProt P05109 1-93, looked up)
chain: MLTELEKALNSIIDVYHKYSLIKGNFHAVYRDDLKKLLETECPQYIRKKGADVWFKELDINTDGAVNFQEFLILVIKMGVAAHKKSHEESHKE
notes: human S100A8, Swiss-Prot P05109, gene cloned into pHUE between SacII and HindIII; Made as a ubiquitin-S100 chimera and cut with Usp2; also called S10A8; source: E. coli BL21(DE3)-RIL, purified (IMAC, Usp2 cleavage, anion exchange, gel filtration)

Kd [2]: ≥ 10 µM
B3: recombinant human S100A9 (natural protein, UniProt P06702 1-114, looked up)
chain: MTCKMSQLERNIETIINTFHQYSVKLGHPDTLNQGEFKELVRKDLQNFLKKENKNEKVIEHIMEDLDTNADKQLSFEEFIMLMARLTWASHEKMHEGDEGPGHHHKPGLGEGTP
notes: human S100A9, Swiss-Prot P06702, gene cloned into pET-11a between NdeI and BamHI; also called S10A9; source: E. coli BL21(DE3)pLysS, purified (ammonium sulfate, anion exchange, cation exchange, gel filtration)

Kd [2]: ≥ 10 µM
B4: recombinant human S100A13 (natural protein, UniProt Q99584 1-98, looked up)
chain: MAAEPLTELEESIETVVTTFFTFARQEGRKDSLSVNEFKELVTQQLPHLLKDVGSLDEKMKSLDVNQDSELKFNEYWRLIGELAKEIRKKKDLKIRKK
notes: human S100A13, Swiss-Prot Q99584, gene cloned into pET-11a between NdeI and BamHI; also called S10AD

Kd [2]: ≥ 10 µM
B5: recombinant human S100A14 (natural protein, UniProt Q9HCY8 1-104, looked up)
chain: MGQCRSANAEDAQEFSDVERAIETLIKNFHQYSVEGGKETLTPSELRDLVTQQLPHLMPSNCGLEEKIANLGSCNDSKLEFRSFWELIGEAAKSVKLERPVRGH
notes: human S100A14, Swiss-Prot Q9HCY8, gene cloned into pHUE between SacII and HindIII; Made as a ubiquitin-S100 chimera and cut with Usp2; also called S10AE; source: E. coli BL21(DE3)-RIL, purified (IMAC, Usp2 cleavage, second IMAC, gel filtration)

B6: recombinant human S100A4 (natural protein)
chain: not shown
notes: human S100A4, Swiss-Prot P26447, gene cloned into pHUE between SacII and HindIII; Made as a ubiquitin-S100 chimera and cut with Usp2; also called S10A4; source: E. coli BL21 (DE3) with pLacIRARE, purified (IMAC, Usp2 cleavage, anion exchange, gel filtration)
Kd [1]: ≤ 0.5 µM

Kd [2]: ≥ 10 µM
B7: recombinant human S100A11 (natural protein, UniProt P31949 1-105, looked up)
chain: MAKISSPTETERCIESLIAVFQKYAGKDGYNYTLSKTEFLSFMNTELAAFTKNQKDPGVLDRMMKKLDTNSDGQLDFSEFLNLIGGLAMACHDSFLKAVPSQKRT
notes: human S100A11, Swiss-Prot P31949, gene cloned into pHUE between SacII and HindIII; Made as a ubiquitin-S100 chimera and cut with Usp2; also called S10AB; source: E. coli BL21 (DE3) with pLacIRARE, purified (IMAC, Usp2 cleavage, anion exchange, gel filtration)

Kd [2]: ≥ 10 µM
B8: recombinant human S100A12 (natural protein, UniProt P80511 1-92, looked up)
chain: MTKLEEHLEGIVNIFHQYSVRKGHFDTLSKGELKQLLTKELANTIKNIKDKAVIDEIFQGLDANQDEQVDFQEFISLVAIALKAAHYHTHKE
notes: human S100A12, Swiss-Prot P80511, gene cloned into pHUE between SacII and HindIII; Made as a ubiquitin-S100 chimera and cut with Usp2; also called S10AC; source: E. coli BL21 (DE3) with pLacIRARE, purified (IMAC, Usp2 cleavage, anion exchange, gel filtration)

Kd [2]: ≥ 10 µM
B9: recombinant human S100A7 (natural protein, UniProt P31151 1-101, looked up)
chain: MSNTQAERSIIGMIDMFHKYTRRDDKIEKPSLLTMMKENFPNFLSACDKKGTNYLADVFEKKDKNEDKKIDFSEFLSLLGDIATDYHKQSHGAAPCSGGSQ
notes: human S100A7, Swiss-Prot P31151, gene cloned into pHUE between SacII and HindIII; Made as a ubiquitin-S100 chimera and cut with Usp2; also called S10A7; source: E. coli BL21(DE3)-RIL, purified (IMAC, Usp2 cleavage, anion exchange, gel filtration)

Kd [2]: ≥ 10 µM
B10: recombinant human S100A15 (S100A7A) (natural protein, UniProt Q86SG5 1-101, looked up)
chain: B9 chain with R22G, D25G, T52I, N53H, D57T, T84A
notes: human S100A15 (S100A7A), Swiss-Prot Q86SG5, gene cloned into pHUE between SacII and HindIII; Made as a ubiquitin-S100 chimera and cut with Usp2; also called A1A7A; source: E. coli BL21(DE3)-RIL, purified (IMAC, Usp2 cleavage, anion exchange, gel filtration)
